Laboratory results as given in PMC11965559 (Nature Communications, 2024).
Where two headings read alike, the source gives them in different places.

Key:
Experiment in all cases: EMSA
[1] = biological target: T1, SmD1 (1-109);SmD2;SmF;SmE;SmG (Saccharomyces cerevisiae;Saccharomyces …, UniProt Q02260;Q06217;P54999;Q12330;P40204 1-109;1-110;1-86;1-94;1-77, ||||)
[2] = biological target: T2, SmD1 (1-109);SmD2;SmF;SmE;SmG;Brr1 (Saccharomyces cerevisiae;Saccharomyces …, UniProt Q02260;Q06217;P54999;Q12330;P40204;Q99177 1-109;1-110;1-86;1-94;1-77;1-341, |||||)
[3] = biological target: T3, SmD1 (1-109);SmD2;SmF;SmE;SmG;SmD3 (1-88);SmB (1-105) (Saccharomyces cerevisiae;Saccharomyces …, UniProt Q02260;Q06217;P54999;Q12330;P40204;P43321;P40018 …, ||||||)
[4] = biological target: T3, SmD1 (1-109);SmD2;SmF;SmE;SmG;SmD3 …; remark: listed apart in the source
[5] = biological target: SmD1 (1-109);SmD2;SmF;SmE;SmG;Brr1;SmD3 (1-88);SmB (1-105) (Saccharomyces cerevisiae;Saccharomyces …, UniProt Q02260;Q06217;P54999;Q12330;P40204;Q99177;P43321;P40018 …, |||||||)
[6] = biological target: T2, SmD1 (1-109);SmD2;SmF;SmE;SmG;Brr1; remark: listed apart in the source
[7] = biological target: T3, SmD1 (1-109);SmD2;SmF;SmE;SmG;SmD3 …; remark: listed apart in the source
[8] = biological target: T1, SmD1 (1-109);SmD2;SmF;SmE;SmG; remark: listed apart in the source
[9] = biological target: T3, SmD1 (1-109);SmD2;SmF;SmE;SmG;SmD3 …; remark: listed apart in the source

Measured: binding result

B1: Umini-snRNA (structured_RNA)
RNA: GGGAAGUGUUACAGCUCUUUUAGAAUUUUUGGAGUAGGCUUUCUGGCUUUUCACCGGAAAGCCCCU
binds: [1] | [2] | [3]

B2: Umini-ΔSm-snRNA (structured_RNA)
RNA: GGGAAGUGUUACAGCUCUUUUAGAACCCCCGGAGUAGGCUUUCUGGCUUUUCACCGGAAAGCCCCU
no binding: [4] | [1] | [5] | [6]

B3: U4-snRNA (structured_RNA)
RNA: GGAUCCUUAUGCACGGGAAAUACGCAUAUCAGUGAGGAUUCGUCCGAGAUUGUGUUUUUGCUGGUUGAAAUUUAAUUAUAAACCAGACCGUCUCCUCAUGGUCAAUUCGGUGUUCGCUUUUGAAUACUUCAAGACUAUGUAAAUUUUUGGAAUACCUUU
binds: [6] | [7]

B4: Umini-3'ss (ssRNA)
RNA: GGGAAGUGUUACAGCUCUUUUAGAAUUUUUGGAGUAGGCUUUCUGGCUUUUCAGGCCUUUCGGGGA
binds: [8] | [9] | [6]
